Our source for the Kd values is patent US20230312743A1 (MIROBIO, published 2023).

Where a chain is given by its changes, count along the chain named. Names may count otherwise.

Sequences and labels used below:
B1: humCL19v1 hIgG1 L235N (antibody)
VH: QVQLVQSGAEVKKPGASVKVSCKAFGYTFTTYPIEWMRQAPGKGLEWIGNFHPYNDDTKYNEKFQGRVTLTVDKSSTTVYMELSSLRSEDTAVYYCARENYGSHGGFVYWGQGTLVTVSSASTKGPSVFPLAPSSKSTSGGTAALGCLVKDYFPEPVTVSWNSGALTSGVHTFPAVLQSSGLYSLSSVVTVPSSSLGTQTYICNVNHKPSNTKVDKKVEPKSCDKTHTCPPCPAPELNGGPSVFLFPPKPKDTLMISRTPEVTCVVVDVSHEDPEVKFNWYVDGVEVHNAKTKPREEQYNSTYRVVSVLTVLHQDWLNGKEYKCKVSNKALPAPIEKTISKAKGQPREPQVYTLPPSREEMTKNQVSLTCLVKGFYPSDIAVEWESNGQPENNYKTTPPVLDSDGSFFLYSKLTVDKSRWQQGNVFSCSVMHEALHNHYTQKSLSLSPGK
VL: ENQLTQSPSSLSASVGDRVTITCRASSSVISSYLHWYQQKPGKAPKLLIYSTSNLASGVPSRFSGSGSGTDYTLTISSLQPEDFATYYCQQYNSYPLTFGGGTKLEIKRTVAAPSVFIFPPSDEQLKSGTASVVCLLNNFYPREAKVQWKVDNALQSGNSQESVTEQDSKDSTYSLSSTLTLSKADYEKHKVYACEVTHQGLSSPVTKSFNRGEC
B2: humCL19v1 hIgG1 S239V (antibody)
VH: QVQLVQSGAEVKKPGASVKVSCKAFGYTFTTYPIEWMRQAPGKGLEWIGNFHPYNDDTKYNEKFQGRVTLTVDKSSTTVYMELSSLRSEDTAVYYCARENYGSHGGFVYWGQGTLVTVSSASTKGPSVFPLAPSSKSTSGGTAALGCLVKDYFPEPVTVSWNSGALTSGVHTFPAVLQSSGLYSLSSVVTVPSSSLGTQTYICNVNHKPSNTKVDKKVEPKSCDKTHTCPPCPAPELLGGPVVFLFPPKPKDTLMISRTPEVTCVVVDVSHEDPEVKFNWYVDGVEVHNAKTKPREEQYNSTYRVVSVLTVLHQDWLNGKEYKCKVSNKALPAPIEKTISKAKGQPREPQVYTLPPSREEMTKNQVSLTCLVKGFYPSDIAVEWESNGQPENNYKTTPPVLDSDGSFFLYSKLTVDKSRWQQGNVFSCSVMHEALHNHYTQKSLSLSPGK
VL: B1 VL
B3: humCL19v1 hIgG1 S239I (antibody)
VH: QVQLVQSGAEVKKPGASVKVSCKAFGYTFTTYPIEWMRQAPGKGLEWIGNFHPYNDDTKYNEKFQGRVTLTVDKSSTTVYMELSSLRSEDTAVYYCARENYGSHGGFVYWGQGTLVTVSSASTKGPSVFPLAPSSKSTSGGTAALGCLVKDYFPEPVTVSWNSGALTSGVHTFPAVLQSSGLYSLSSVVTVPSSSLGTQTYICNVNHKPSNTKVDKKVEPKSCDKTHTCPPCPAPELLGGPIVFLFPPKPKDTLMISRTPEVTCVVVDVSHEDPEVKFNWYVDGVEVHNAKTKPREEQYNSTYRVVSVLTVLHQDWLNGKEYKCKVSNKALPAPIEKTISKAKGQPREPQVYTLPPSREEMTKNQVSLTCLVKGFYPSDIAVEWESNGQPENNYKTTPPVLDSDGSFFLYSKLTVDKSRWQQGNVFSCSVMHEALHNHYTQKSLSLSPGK
VL: B1 VL
B4: humCL19v1 hIgG1 L235H (antibody)
VH: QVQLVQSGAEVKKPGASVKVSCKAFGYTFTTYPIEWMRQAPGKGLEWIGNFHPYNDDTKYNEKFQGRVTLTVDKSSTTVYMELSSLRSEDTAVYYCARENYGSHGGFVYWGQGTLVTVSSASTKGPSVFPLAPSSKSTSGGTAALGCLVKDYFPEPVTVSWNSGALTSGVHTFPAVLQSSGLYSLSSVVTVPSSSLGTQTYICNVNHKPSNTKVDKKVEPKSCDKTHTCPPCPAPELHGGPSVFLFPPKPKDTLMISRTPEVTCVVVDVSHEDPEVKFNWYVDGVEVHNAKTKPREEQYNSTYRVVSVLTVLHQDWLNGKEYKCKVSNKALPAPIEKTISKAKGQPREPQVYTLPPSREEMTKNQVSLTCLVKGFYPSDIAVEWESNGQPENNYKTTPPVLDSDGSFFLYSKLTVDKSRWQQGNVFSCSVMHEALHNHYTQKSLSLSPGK
VL: B1 VL
B5: humCL19v1 hIgG1 V266M (antibody)
VH: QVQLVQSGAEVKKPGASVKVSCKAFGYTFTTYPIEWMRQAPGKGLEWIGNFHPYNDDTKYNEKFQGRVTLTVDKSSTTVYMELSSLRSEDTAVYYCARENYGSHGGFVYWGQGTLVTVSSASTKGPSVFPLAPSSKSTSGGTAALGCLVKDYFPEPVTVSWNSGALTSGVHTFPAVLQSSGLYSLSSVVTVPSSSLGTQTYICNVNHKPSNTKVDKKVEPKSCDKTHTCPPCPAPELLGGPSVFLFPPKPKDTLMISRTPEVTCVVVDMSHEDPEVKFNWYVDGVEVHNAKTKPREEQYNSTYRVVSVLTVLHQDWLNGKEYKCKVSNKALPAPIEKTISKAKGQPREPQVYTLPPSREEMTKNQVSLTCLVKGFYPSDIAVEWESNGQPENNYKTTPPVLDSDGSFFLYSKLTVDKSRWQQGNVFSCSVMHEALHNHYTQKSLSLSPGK
VL: B1 VL
B6: humCL19v1 P238D (antibody, human IgG1, kappa)
heavy: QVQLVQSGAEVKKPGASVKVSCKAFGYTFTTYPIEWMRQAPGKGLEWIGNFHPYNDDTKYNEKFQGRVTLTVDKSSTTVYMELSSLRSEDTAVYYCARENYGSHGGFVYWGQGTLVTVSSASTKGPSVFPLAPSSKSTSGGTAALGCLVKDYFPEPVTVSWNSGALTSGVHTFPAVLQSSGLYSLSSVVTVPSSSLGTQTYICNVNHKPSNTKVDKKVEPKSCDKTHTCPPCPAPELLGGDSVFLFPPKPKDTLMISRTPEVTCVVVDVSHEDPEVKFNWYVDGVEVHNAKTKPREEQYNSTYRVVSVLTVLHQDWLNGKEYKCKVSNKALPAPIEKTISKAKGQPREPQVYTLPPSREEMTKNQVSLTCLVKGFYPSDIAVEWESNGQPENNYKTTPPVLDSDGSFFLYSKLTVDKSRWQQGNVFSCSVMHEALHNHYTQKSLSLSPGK
light: B1 VL
notes: That makes them humCL19v1 P238D; also called hIgG1 P238D; P238D mutated humCL19v1
B7: humCL19v1 hIgG1 Y300N (antibody)
VH: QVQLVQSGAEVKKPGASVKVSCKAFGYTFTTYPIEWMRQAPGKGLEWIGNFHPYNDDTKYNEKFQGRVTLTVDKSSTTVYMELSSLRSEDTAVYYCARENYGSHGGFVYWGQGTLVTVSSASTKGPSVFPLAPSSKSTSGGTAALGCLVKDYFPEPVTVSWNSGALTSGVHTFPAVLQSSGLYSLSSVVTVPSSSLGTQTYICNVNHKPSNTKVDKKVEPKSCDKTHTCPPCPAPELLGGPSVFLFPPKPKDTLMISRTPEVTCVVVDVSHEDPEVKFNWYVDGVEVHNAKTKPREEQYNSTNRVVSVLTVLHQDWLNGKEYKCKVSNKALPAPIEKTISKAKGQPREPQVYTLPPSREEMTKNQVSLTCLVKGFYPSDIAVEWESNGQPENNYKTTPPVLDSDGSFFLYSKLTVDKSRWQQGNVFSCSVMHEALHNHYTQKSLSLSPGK
VL: B1 VL
B8: humCL19v9 (antibody, human IgG1, V domains shown)
VH: QVQLVQSGSELKKPGASVKVSCKAFGYTFTTYPIEWMRQAPGQGLEWIGNFHPYNDDTKYNEGFTGRFVLSVDKSSTTVYLQISSLKAEDTAVYYCARENYGSHGGFVYWGQGTLVTVSS
VL: ENQLTQSPSSLSASVGDRVTITCRASSSVISSYLHWYQQKPGKAPKLLIYSTSNLASGVPSRFSGSGSGTDYTLTISSLQPEDFATYYCQQYNSYPLTFGGGTKLEIK
notes: hu-VH3 + hu-VL1; human IgG1 kappa isotype
B9: humCL19v13 (antibody, human IgG1, V domains shown)
VH: B8 VH with M37V, I48M, L70F, S76V
VL: B8 VL
notes: hu-VH4 + hu-VL1; human IgG1 kappa isotype
B10: humCL19v10 (antibody, human IgG1, V domains shown)
VH: B8 VH
VL: B8 VL with N93R, S94G
notes: hu-VH3 + hu-VL2; human IgG1 kappa isotype
B11: humCL19v14 (antibody, human IgG1, V domains shown)
VH: B8 VH with M37V, I48M, L70F, S76V
VL: B8 VL with N93R, S94G
notes: hu-VH4 + hu-VL2; human IgG1 kappa isotype
B12: humCL19v3 (antibody, human IgG1, V domains shown)
VH: QVQLVQSGAEVKKPGASVKVSCKAFGYTFTTYPIEWMRQAPGKGLEWIGNFHPYNDDTKYNEKFQGRVTLTVDKSSTTVYMELSSLRSEDTAVYYCARENYGSHGGFVYWGQGTLVTVSS
VL: ENVLTQSPATLSLSPGERATLSCRASSSVISSYLHWYQQKPGQAPRLLIYSTSNLASGIPARFSGSGSGTDYTLTISSLEPEDFAVYYCQQYNSYPLTFGGGTKLEIK
notes: hu-VH1 + hu-VL3; human IgG1 kappa isotype
B13: humCL19v11 (antibody, human IgG1, V domains shown)
VH: B8 VH
VL: B12 VL
notes: hu-VH3 + hu-VL3; human IgG1 kappa isotype
B14: humCL19v6 (antibody, human IgG1, V domains shown)
VH: B12 VH with M37V, I48M, L70M, S76T
VL: B8 VL with N93R, S94G
notes: hu-VH2 + hu-VL2; human IgG1 kappa isotype
B15: humCL19v7 (antibody, human IgG1, V domains shown)
VH: B12 VH with M37V, I48M, L70M, S76T
VL: B12 VL
notes: hu-VH2 + hu-VL3; human IgG1 kappa isotype
B16: humCL19v16 (antibody, human IgG1, V domains shown)
VH: B8 VH with M37V, I48M, L70F, S76V
VL: B12 VL with L55R, S57T
notes: hu-VH4 + hu-VL4; human IgG1 kappa isotype
B17: humCL19v12 (antibody, human IgG1, V domains shown)
VH: B8 VH
VL: B12 VL with L55R, S57T
notes: hu-VH3 + hu-VL4; human IgG1 kappa isotype
B18: humCL19v8 (antibody, human IgG1, V domains shown)
VH: B12 VH with M37V, I48M, L70M, S76T
VL: B12 VL with L55R, S57T
notes: hu-VH2 + hu-VL4; human IgG1 kappa isotype
B19: humCL19v4 (antibody, human IgG1, V domains shown)
VH: B12 VH
VL: B12 VL with L55R, S57T
notes: hu-VH1 + hu-VL4; human IgG1 kappa isotype
B20: humCL19v2 (antibody, human IgG1, V domains shown)
VH: B12 VH
VL: B8 VL with N93R, S94G
notes: hu-VH1 + hu-VL2; human IgG1 kappa isotype
B21: humCL19v5 (antibody, human IgG1, V domains shown)
VH: B12 VH with M37V, I48M, L70M, S76T
VL: B8 VL
notes: hu-VH2 + hu-VL1; human IgG1 kappa isotype
B22: Parental (Clone 19 VH and VL) (antibody, V domains shown)
VH: QVQLQQSGAELVKPGASVKMSCKAFGYTFTTYPIEWMKQNHGKSLEWIGNFHPYNDDTKYNEKFKGKAKLTVEKSSTTVYLELSRLTSDDSAVYYCARENYGSHGGFVYWGQGTLVTVSG
VL: ENVLTQSPAIMSASPGEKVTMTCRASSSVISSYLHWYQQKSGASPKLWIYSTSNLASGVPDRFSGSGSGTSYSLTISSVEAEDAATYYCQQYNSYPLTFGAGTKLEIK
notes: The antibodies were captured through anti-human IgG and the variants were made on human IgG1 kappa, so it is probably a chimeric human IgG1 kappa

T4 sequence (Q15116 25-170): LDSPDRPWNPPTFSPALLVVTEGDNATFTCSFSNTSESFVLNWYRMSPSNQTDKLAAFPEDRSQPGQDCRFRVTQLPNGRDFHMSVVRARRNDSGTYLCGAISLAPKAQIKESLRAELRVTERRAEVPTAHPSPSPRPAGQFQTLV

The target in one experiment is T1, human FcγR2B (recombinant, extracellular domain only) (human, UniProt P31994 43-217).
T1 construct: extracellular domain; also called FcyR2B; FcgR2B
T1 sequence (looked up): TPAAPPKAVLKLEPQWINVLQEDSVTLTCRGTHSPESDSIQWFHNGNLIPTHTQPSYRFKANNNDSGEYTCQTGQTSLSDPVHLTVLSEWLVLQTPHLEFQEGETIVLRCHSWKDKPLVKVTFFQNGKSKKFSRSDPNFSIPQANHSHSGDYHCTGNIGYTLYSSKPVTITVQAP
Kind of experiment: SPR (Biacore 8K), 37 C, steady state; antibody captured on immobilised human PD-1 ECD, FcR ECD as analyte. Here is the method: (§1) The interactions were assessed by surface plasmon resonance using a Biacore 8 K with the recombinantly expressed FcRs (extracellular domains only) as analyte. Briefly, recombinant human PD-1 extracellular domain was covalently immobilized to both flow cells of all channels of a CM5 Series S sensor chip using the GE Healthcare Amine coupling kit. […] Steady state affinity analysis was then performed by injecting varying concentrations of FcR and measuring equilibrium binding. Double referencing was used (subtracting the signal in the reference Fc1 and also subtracting the signal from a blank zero concentration injection). KD values were calculated from the Langmuir curves (plotting equilibrium binding against analyte concentration to determine the concentration required for half maximal binding).
On to B1, for which the Kd – broadly, the free concentration of one partner at which half of the binding sites on the other are occupied at equilibrium, for simple one-to-one binding – was 0.059 µM.
On to B2, for which the dissociation constant Kd was 0.0036 µM.
Take B3: the equilibrium dissociation constant (Kd) turned out to be 0.00399 µM.
For the molecule B4, the dissociation constant Kd worked out at 0.0136 µM.
Turning to B5, the Kd came to 0.00154 µM.
B6: the dissociation constant Kd worked out at 0.00279 µM.
On to B7, for which the Kd amounted to 0.00632 µM.

Another experiment has as its target T2, human FcγR2A 131R allotype (recombinant, extracellular domain only) (human, UniProt P12318 34-217).
T2 construct: extracellular domain; 131R allotype; Position 131 is the customary mature-protein numbering; also called FcyR2A (131R)
T2 sequence (looked up): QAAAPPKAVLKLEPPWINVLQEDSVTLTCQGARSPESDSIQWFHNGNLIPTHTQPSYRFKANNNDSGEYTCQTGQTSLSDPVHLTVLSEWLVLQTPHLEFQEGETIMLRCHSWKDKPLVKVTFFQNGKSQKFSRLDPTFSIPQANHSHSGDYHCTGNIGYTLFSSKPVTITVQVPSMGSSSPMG
The description is as above. Here is the method:
as §1
As to B1, the Kd came to 0.0123 µM.
As for B2, the Kd is 0.00162 µM.
Regarding B3, the Kd was found to be 0.00165 µM.
As for B4, the Kd is 0.00367 µM.
The same measure, in the same setting: next, B5: 0.00058 µM.
Still for that read-out and setting: next, B6: 0.0175 µM; B7: 0.00222 µM.

Another experiment addresses T3, human FcγR2A 131H allotype (recombinant, extracellular domain only) (human, UniProt P12318 34-217).
T3 construct: extracellular domain; 131H allotype; Position 131 is the customary mature-protein numbering; also called FcyR2A (131H)
T3 sequence (looked up): T2 sequence (looked up) with R134H
The description is as above. On the procedure: as §1
As to B1, the Kd stood at 0.0135 µM.
Same read-out and setting: next, B2: 0.00313 µM; B3: 0.00338 µM.
On the same count and under the same terms, the result for B4 reads 0.00396 µM.
On to B5, for which the Kd is 0.00628 µM.
The same measure, in the same setting: next, B6: 0.0903 µM.
On to B7, for which the Kd was 0.00283 µM.

A further experiment has as its target T4, monomeric soluble human PD-1 extracellular domain (human, UniProt Q15116 25-170).
T4 construct: extracellular domain; also called recombinant human PD-1 extracellular domain
Kind of experiment: SPR (Biacore 8K), 37 C, antibody captured via anti-human IgG, soluble PD-1 ECD as analyte, single cycle kinetics. On the procedure:
(§2) Antibody variants were produced consisting of all the potential combinations of humanized VH and VL domains. […] The binding affinity and kinetics of the humanized antibody variants to human or cynomolgus PD-1 were determined by surface plasmon resonance (SPR) using the Biacore 8 K (Cytiva). Human antibody capture kit (Cytiva) was used to coat a Series S CM5 Sensor Chip (Cytiva) with polyclonal anti-human IgG. Anti-PD-1 antibody was then captured onto the biosensor surface and an isotype control antibody captured in the reference channel. Various concentrations of monomeric soluble human PD-1 extracellular domain or soluble cynomolgus macaque PD-1 extracellular domain were then injected over the immobilized antibodies in the buffer 10 mM Hepes, 150 mM NaCl, 0.005% v/v Surfactant P20, pH 7.4 (HBS-P) at 37° C., in a single cycle kinetics analysis. Association and dissociation rates were fitted using BiaEvaluation Software (Cytiva) after reference and blank subtractions, and dissociation constants were calculated.
On the technique in general: Surface plasmon resonance follows binding to a sensor surface in real time, without labels.
Take B8: the Kd is 0.0448 µM.
For the molecule B9, the Kd turned out to be 0.16 µM.
On the same count and under the same terms, the result for B10 reads 0.67 µM; that for B11, 80.2 µM; that for B12, 0.0373 µM.
As for B13, the Kd turned out to be 0.0525 µM.
As for B14, the Kd was determined as 2 µM.
In the case of B15, the Kd was 0.0645 µM.
On to B16, for which the dissociation constant (Kd) is 0.161 µM.
Regarding B17, the equilibrium dissociation constant (Kd) turned out to be 0.0475 µM.
For B18, the equilibrium dissociation constant (Kd) amounted to 0.0589 µM.
On the same count and under the same terms, next, B19: 0.032 µM.
In the case of B20, the Kd turned out to be 1.01 µM.
With B21, the dissociation constant Kd was 0.0576 µM.
In the case of B22, the dissociation constant Kd worked out at 0.0537 µM.

Another experiment deals with T5, soluble cynomolgus macaque PD-1 extracellular domain (cynomolgus macaque, UniProt B0LAJ3 25-170).
T5 construct: also called Cyno PD-1; cynomolgus PD-1
T5 sequence (B0LAJ3 entry or part of it limits assumed): as the sequence (Q15116 25-170) above, with D2E, P10A, V19L, T35A, Q75R, T144A counted along it
The description is as above. Here is the method:
as §2
As for B8, the Kd came to 0.251 µM.
In the case of B12, the dissociation constant Kd is 0.236 µM.
Turning to B13, the dissociation constant Kd is 0.249 µM.
Regarding B14, the Kd was found to be 15.2 µM.
For the molecule B15, the Kd stood at 0.565 µM.
Regarding B16, the Kd was 0.896 µM.
Turning to B17, the Kd turned out to be 0.253 µM.
On the same count and under the same terms, next, B18: 0.369 µM.
As for B19, the Kd is 0.199 µM.
For the molecule B21, the dissociation constant Kd stood at 0.44 µM.
On to B22, for which the dissociation constant Kd amounted to 0.318 µM.
